This is an account of results in the supplement of paper PMC10567573.

Sequences and labels used below:
B1: TEKT4 (parent)
chain: YARYHQAFADRDQSERQRHESQQL
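Note: lentivirally expressed fusions sorted by FACS into six bins by GFP to DsRed ratio, PSI derived from sequencing read proportions per bin multiplied by bin number.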

In this data set the parent is B1. Put plainly: protein stability index of a GFP-peptide fusion (GPS, HEK-293T) (PSI 1-6); higher = more stable. The following applies: c terminus: a fixed tail appended.
Regarding YARYPQAFADRDQSERQRHESQQL [H5P], the protein stability index was 2.98.

Regarding YARYGQAFADRDQSERQRHESQQL [H5G], the protein stability index amounted to 1.44.

On to YARYVQAFADRDQSERQRHESQQL [H5V], for which the protein stability index turned out to be 2.87.

Turning to YARYRQAFADRDQSERQRHESQQL [H5R], the protein stability index was 3.

For YARYWQAFADRDQSERQRHESQQL [H5W], the protein stability index amounted to 3.19.

For YARYYQAFADRDQSERQRHESQQL [H5Y], the protein stability index was found to be 2.6.

YARYHQAFADRCQSERQRHESQQL [D12C]: the protein stability index came to 2.17.

In the case of YARYHQAFADRQQSERQRHESQQL [D12Q], the protein stability index came out at 2.31.

YARYHQAFADRKQSERQRHESQQL [D12K]: the protein stability index worked out at 1.67.

For YARYHQAFADRGQSERQRHESQQL [D12G], the protein stability index stood at 2.08.

For the variant YARYHQAFADREQSERQRHESQQL [D12E], the protein stability index amounted to 2.01.

As for YARYHQAFADRAQSERQRHESQQL [D12A], the protein stability index was 1.43.

On to YARYHQAFADRDQSERQRHEQQQL [S21Q], for which the protein stability index was found to be 1.59.

Take YARYHQAFADRDQSERQRHEPQQL [S21P]: the protein stability index stood at 2.39.

For YARYHQAFADRDQSERQRHEFQQL [S21F], the protein stability index came to 1.59.

YARYHQAFADRDQSERQRHEMQQL [S21M]: the protein stability index was found to be 1.65.

With YARYHQAFADRDQSERQRHEEQQL [S21E], the protein stability index is 2.5.

As to YARYHQAFADRDQSERQRHEYQQL [S21Y], the protein stability index stood at 1.29.

YARYHQAFADRDQSERQRHEWQQL [S21W]: the protein stability index came out at 1.69.

Take YARYHQAFADRDQSERQRHELQQL [S21L]: the protein stability index is 1.83.

On to YARYHQAFADRDQSERQRHECQQL [S21C], for which the protein stability index was 2.77.

Turning to YARYHQAFADYDQSERQRHESQQL [R11Y], the protein stability index amounted to 1.64.

For YARYHQAFADFDQSERQRHESQQL [R11F], the protein stability index turned out to be 1.99.

YARYHQAFADTDQSERQRHESQQL [R11T]: the protein stability index was 2.12.

As for YARYHQAFADPDQSERQRHESQQL [R11P], the protein stability index worked out at 3.03.

YARYHQAFADLDQSERQRHESQQL [R11L]: the protein stability index stood at 1.98.

Turning to YARYHQAFADIDQSERQRHESQQL [R11I], the protein stability index was found to be 2.1.

As for YARYHQAFVDRDQSERQRHESQQL [A9V], the protein stability index worked out at 3.35.

As for YARYHQAFGDRDQSERQRHESQQL [A9G], the protein stability index was 2.6.

Regarding YARYHQAFMDRDQSERQRHESQQL [A9M], the protein stability index came out at 2.21.

In the case of YARYHQAFKDRDQSERQRHESQQL [A9K], the protein stability index amounted to 3.3.

With YARYHQAFIDRDQSERQRHESQQL [A9I], the protein stability index turned out to be 3.12.

For the variant YARYHQAFFDRDQSERQRHESQQL [A9F], the protein stability index was 2.58.

YARYHQAFCDRDQSERQRHESQQL [A9C]: the protein stability index stood at 1.67.

Turning to YARYHQAFTDRDQSERQRHESQQL [A9T], the protein stability index came to 3.36.

For the variant YARYHQAFLDRDQSERQRHESQQL [A9L], the protein stability index came out at 3.49.

As for YARYHQTFADRDQSERQRHESQQL [A7T], the protein stability index was 3.48.

As for YARYHQEFADRDQSERQRHESQQL [A7E], the protein stability index came out at 3.72.

For the variant YARYHQDFADRDQSERQRHESQQL [A7D], the protein stability index was 3.7.

As for YARYHQLFADRDQSERQRHESQQL [A7L], the protein stability index came to 3.3.

In the case of YARYHQSFADRDQSERQRHESQQL [A7S], the protein stability index was found to be 3.2.

In the case of YARYHQQFADRDQSERQRHESQQL [A7Q], the protein stability index turned out to be 3.03.

Regarding YARYHQAFADRDQSEDQRHESQQL [R16D], the protein stability index came out at 2.4.

For YARYHQAFADRDQSEQQRHESQQL [R16Q], the protein stability index turned out to be 2.21.

Turning to YARYHQAFADRDQSEMQRHESQQL [R16M], the protein stability index was found to be 1.89.

For YARYHQAFADRDQSEFQRHESQQL [R16F], the protein stability index was 2.81.

With YARYHQAFADRDQSEVQRHESQQL [R16V], the protein stability index came to 2.35.

YARYHQAFADRDQSEYQRHESQQL [R16Y]: the protein stability index worked out at 1.91.

In the case of YARYHQAFADRDQSENQRHESQQL [R16N], the protein stability index was found to be 2.4.

Regarding YARYHQAFADRDQSEHQRHESQQL [R16H], the protein stability index is 2.28.

With YARYHQAFADRDQSESQRHESQQL [R16S], the protein stability index worked out at 2.

Regarding YAHYHQAFADRDQSERQRHESQQL [R3H], the protein stability index was found to be 2.64.

YATYHQAFADRDQSERQRHESQQL [R3T]: the protein stability index amounted to 2.79.

On to YAKYHQAFADRDQSERQRHESQQL [R3K], for which the protein stability index turned out to be 2.3.

YALYHQAFADRDQSERQRHESQQL [R3L]: the protein stability index came to 2.97.

As for YADYHQAFADRDQSERQRHESQQL [R3D], the protein stability index is 3.

Turning to YAAYHQAFADRDQSERQRHESQQL [R3A], the protein stability index turned out to be 2.85.

Turning to YAQYHQAFADRDQSERQRHESQQL [R3Q], the protein stability index was 2.57.

In the case of YVRYHQAFADRDQSERQRHESQQL [A2V], the protein stability index is 1.87.

Turning to YSRYHQAFADRDQSERQRHESQQL [A2S], the protein stability index is 1.92.

As to YERYHQAFADRDQSERQRHESQQL [A2E], the protein stability index worked out at 4.29.

Consider YTRYHQAFADRDQSERQRHESQQL [A2T], for which the protein stability index was 1.67.

Regarding YHRYHQAFADRDQSERQRHESQQL [A2H], the protein stability index amounted to 4.12.

On to YPRYHQAFADRDQSERQRHESQQL [A2P], for which the protein stability index is 2.7.

As for YNRYHQAFADRDQSERQRHESQQL [A2N], the protein stability index came out at 2.85.

For the variant YIRYHQAFADRDQSERQRHESQQL [A2I], the protein stability index was determined as 2.5.

On to YFRYHQAFADRDQSERQRHESQQL [A2F], for which the protein stability index was determined as 2.87.

For YKRYHQAFADRDQSERQRHESQQL [A2K], the protein stability index worked out at 3.82.

Turning to YARYHQAFADRDQSERQRHKSQQL [E20K], the protein stability index amounted to 2.06.

Turning to YARYHQAFADRDQSERQRHCSQQL [E20C], the protein stability index amounted to 2.01.

As for YARYHQAFADRDQSERQRHDSQQL [E20D], the protein stability index amounted to 2.36.

YARYHQAFADRDQSERQRHRSQQL [E20R]: the protein stability index worked out at 2.13.

Turning to YARYHQAFADRDQSERQRHISQQL [E20I], the protein stability index stood at 1.57.

Take YARYHQAFADRDQSERQRHASQQL [E20A]: the protein stability index came to 2.51.

On to YARYHQAFADRDQSERQRHLSQQL [E20L], for which the protein stability index amounted to 1.64.

As for YARYHQAFADRDQSERQRHWSQQL [E20W], the protein stability index is 1.51.

As for YARYHQAFADRDQSERQRHHSQQL [E20H], the protein stability index came to 2.22.

Take YARYHQAFADRDQSERQRNESQQL [H19N]: the protein stability index turned out to be 2.08.

YARYHQAFADRDQSERQRQESQQL [H19Q]: the protein stability index came to 2.51.

YARYHQAFADRDQSERQRRESQQL [H19R]: the protein stability index amounted to 2.05.

For YARYHQAFADRDQSERQRCESQQL [H19C], the protein stability index was determined as 2.39.

Turning to YARYHQAFADRDQSERQRPESQQL [H19P], the protein stability index was found to be 2.51.

For the variant YARYHQAFADRDQSERQRVESQQL [H19V], the protein stability index is 2.31.

Regarding YARYHQAFADRDQSERQRIESQQL [H19I], the protein stability index was found to be 2.53.

Consider YARYHQAFADRDQSERQREESQQL [H19E], for which the protein stability index was found to be 2.19.

Consider YARYHQAFADRDQSERQRLESQQL [H19L], for which the protein stability index was 1.65.

Regarding YARYHQAFADRDQSERQRDESQQL [H19D], the protein stability index is 2.25.

Turning to YARYHQAFADRDQVERQRHESQQL [S14V], the protein stability index was determined as 2.31.

On to YARYHQAFADRDQKERQRHESQQL [S14K], for which the protein stability index stood at 2.22.

Consider YARYHQAFADRDQQERQRHESQQL [S14Q], for which the protein stability index came out at 2.13.

As for YARYHQAFADRDQGERQRHESQQL [S14G], the protein stability index was found to be 1.8.

As to AARYHQAFADRDQSERQRHESQQL [Y1A], the protein stability index stood at 3.9.

For the variant PARYHQAFADRDQSERQRHESQQL [Y1P], the protein stability index was 5.02.

With NARYHQAFADRDQSERQRHESQQL [Y1N], the protein stability index is 4.9.
